The source of these data is article PMC6934413.

The target of data set [1] is Smc-HaloTag with J-Cys (S152C) (Bacillus subtilis) (UniProt P51834). Briefly: cross-linking.
The target of the next data set is T1, SmcHd(EQ,3A-hd);ScpA-N (Bacillus subtilis;Bacillus subtilis, UniProt P51834;P51834;P35154 1-219;983-1186;1-86, K60A;R120A;K122A;EQ|).
T1 sequence 1: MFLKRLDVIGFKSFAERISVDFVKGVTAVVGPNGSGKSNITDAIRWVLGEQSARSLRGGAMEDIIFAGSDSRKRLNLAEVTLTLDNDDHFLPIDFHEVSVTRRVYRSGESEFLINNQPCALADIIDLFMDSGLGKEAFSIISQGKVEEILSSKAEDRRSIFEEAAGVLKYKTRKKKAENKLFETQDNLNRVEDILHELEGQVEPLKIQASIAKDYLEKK
T1 sequence 2: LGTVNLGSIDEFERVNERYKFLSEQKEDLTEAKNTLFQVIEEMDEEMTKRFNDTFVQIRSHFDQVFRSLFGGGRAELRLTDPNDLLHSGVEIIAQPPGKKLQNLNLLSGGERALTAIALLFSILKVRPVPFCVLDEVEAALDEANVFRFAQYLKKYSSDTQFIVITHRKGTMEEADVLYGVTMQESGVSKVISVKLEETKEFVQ
T1 sequence 3: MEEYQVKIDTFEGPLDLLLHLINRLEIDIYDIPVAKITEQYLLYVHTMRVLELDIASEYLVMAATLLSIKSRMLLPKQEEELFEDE
Briefly: fluorescence anisotropy.

A further data set addresses T2, SmcHd(EQ);ScpA-N (Bacillus subtilis;Bacillus subtilis, UniProt P51834;P35154 1-219+=GPG+983-1186;1-86, E1118Q;internal_change|).
T2 sequence 1: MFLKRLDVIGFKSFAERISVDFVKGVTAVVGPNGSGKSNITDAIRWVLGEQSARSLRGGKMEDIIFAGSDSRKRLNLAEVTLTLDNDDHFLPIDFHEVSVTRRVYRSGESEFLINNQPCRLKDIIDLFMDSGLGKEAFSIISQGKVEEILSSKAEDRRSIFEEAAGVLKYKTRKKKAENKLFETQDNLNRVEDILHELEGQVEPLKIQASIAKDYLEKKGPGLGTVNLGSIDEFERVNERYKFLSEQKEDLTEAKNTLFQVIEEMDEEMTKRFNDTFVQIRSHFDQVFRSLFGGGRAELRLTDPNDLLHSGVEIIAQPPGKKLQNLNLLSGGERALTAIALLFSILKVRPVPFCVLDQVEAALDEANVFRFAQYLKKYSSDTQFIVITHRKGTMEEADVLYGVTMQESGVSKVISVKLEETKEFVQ
T2 sequence 2: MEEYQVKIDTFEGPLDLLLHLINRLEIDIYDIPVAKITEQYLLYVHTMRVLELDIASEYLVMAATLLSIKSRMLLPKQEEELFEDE
Briefly: fluorescence anisotropy. (In general: In fluorescence polarisation assays a small probe gives low polarisation when free and higher when bound to something large.)

Data set [2] deals with T3, SmcH-CC100 (Smc hinge with adjacent coiled coil) (Bacillus subtilis, UniProt P51834 400-776).
T3 sequence: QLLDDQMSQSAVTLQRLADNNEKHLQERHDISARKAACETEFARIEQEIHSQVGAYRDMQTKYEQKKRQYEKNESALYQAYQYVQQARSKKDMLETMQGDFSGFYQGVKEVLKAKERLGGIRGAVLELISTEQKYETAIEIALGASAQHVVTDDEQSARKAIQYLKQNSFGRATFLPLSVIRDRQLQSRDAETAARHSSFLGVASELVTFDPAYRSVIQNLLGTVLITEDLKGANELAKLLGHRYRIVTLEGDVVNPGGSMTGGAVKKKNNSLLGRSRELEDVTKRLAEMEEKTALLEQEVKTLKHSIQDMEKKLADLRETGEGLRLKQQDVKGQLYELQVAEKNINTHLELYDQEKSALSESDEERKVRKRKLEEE
The data set is described as follows: fluorescence anisotropy.

For the molecule “Smc-HaloTag with J-Cys (S152C) (from UniProt P51834 1-1186) (natural protein)”, the fraction of Smc-HT in the cross-linked species in data set [1] turned out to be 66%.

B1: 40 bp random sequence dsDNA (dsDNA)
DNA 1: TTAGTTGTTCGTAGTGCTCGTCTGGCTCTGGATTACCCGC
DNA 2: GCGGGTAATCCAGAGCCAGACGAGCACTACGAACAACTAA
B1: the binding result is on record as “no binding” with SmcHd(EQ,3A-hd);ScpA-N, “binds” with SmcHd(EQ);ScpA-N and “binds” in data set [2].
